# Reference: patent WO2008021263A2 (dated 2008)
# Columns and labels:
# dimeric form of SDF-1α [1] = biological target: T1, dimeric form of SDF-1α (Felis catus (Cat) (Felis silvestris …, UniProt O62657 22-89)); experiment: SPR, both formats (SDF-1α on chip; Fab on anti-CH1 chip)
# T1 construct: Same protein as m1; also called SDF-lα dimers; dimeric state of the SDF-1α antigen
# [2] = biological target: T2, SDF-1α (stromal cell-derived factor-1 alpha) (Felis catus (Cat) (Felis silvestris …, UniProt O62657 22-89)); experiment: SPR, SDF-1α with heparin in solution (Figure 7 legend: 1D3 IgG)
# T2 construct: also called SDF-lα; SDF-I α
# T2 sequence (O62657 22-89 limits assumed): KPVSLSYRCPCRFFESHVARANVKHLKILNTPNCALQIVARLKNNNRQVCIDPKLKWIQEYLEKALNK
# dimeric form of SDF-1α [3] = biological target: T1, dimeric form of SDF-1α; experiment: SPR, IgG immobilised on chip, SDF-1α flowed (Table VI, not shown)
# [4] = biological target: SDF-FITC (FITC-labelled SDF-1α) (Felis catus (Cat) (Felis silvestris …, UniProt O62657 22-89, FITC label, site not stated)); experiment: fluorescence polarization time course with FITC-labelled SDF-1α (Figures 8A-8C)
# Sequence of SDF-FITC (FITC-labelled SDF-1α) (Felis catus (Cat) (O62657 22-89 limits assumed): as above
# [5] = biological target: T2, SDF-1α (stromal cell-derived factor-1 …); experiment: SPR, Fab captured on anti-CH1 chip, SDF-1α flowed (Table IV, not shown)
# [6] = biological target: T2, SDF-1α (stromal cell-derived factor-1 …); experiment: SPR, time course after dilution of SDF-1α in buffers HBS-EP, HBS-P and HBS-N
# T1 sequence (O62657 22-89 limits assumed): as above
Binder,binding result (dimeric form of SDF-1α [1]),binding result [2],binding result (dimeric form of SDF-1α [3]),binding result [4],binding result [5],binding result [6]
"1D3 Fab (Fab, V domains shown, Fab of the 1D3 human monoclonal antibody; the constant parts are not; also called B-type Fab) VH: EVQLVQSGAEVKKPGASVKVSCKVSGYTLTKLSVHWVRQAPGKGLEWMGSFDPEDGETIYSQRFQGRVTMTEDTSTDTAYMELTSLRSEDTAVYYCATEGQWLVAYYGMDVWGQGTTVTVSS VL: EIVLTQSPSSLSASVGDRVTITCRASQGISSALAWYQQKPGKAPKLLIYDASSLESGVPSRFSGSGSGTDFTLTISSLQPEDFATYYCQQFNSYPLTFGGGTKVEIK",binds,,,,,
"1D3 IgG (antibody, V domains shown, Human monoclonal IgG; also called B-type IgG; B-type antibody) VH: EVQLVQSGAEVKKPGASVKVSCKVSGYTLTKLSVHWVRQAPGKGLEWMGSFDPEDGETIYSQRFQGRVTMTEDTSTDTAYMELTSLRSEDTAVYYCATEGQWLVAYYGMDVWGQGTTVTVSS VL: EIVLTQSPSSLSASVGDRVTITCRASQGISSALAWYQQKPGKAPKLLIYDASSLESGVPSRFSGSGSGTDFTLTISSLQPEDFATYYCQQFNSYPLTFGGGTKVEIK",,binds,binds,binds,,

# Now from value to binder:
binding result (dimeric form of SDF-1α [1]),binding result [2],binding result (dimeric form of SDF-1α [3]),binding result [4],binding result [5],binding result [6],Binder
binds,,,,binds,,"1H2 Fab (Fab, V domains shown, Fab of the 1H2 human monoclonal antibody; the constant parts are not; also called B-type Fab) VH: QVQLVQSGAEVKKPGASVKVSCKVSGYTFTKLSVHWVRQAPGKGLEWMGSFDPEDGETIYSQRFQGRVTMTEDTSTDTAYMELSSLRSEDTAVYYCATEGQWLVAYYGMDVWGQGTMVTVSS VL: EIVLTQSPSSLSASVGDRVTITCRASQGISSALAWYQQKPGKAPKLLIYDASSLESGVPSRFSGSGSGTDFTLTISSLQPEDFATYYCQQFNSYPLTFGGGTKVEIK"
,,binds,binds,,binds,"1H2 IgG (antibody, V domains shown, Human monoclonal IgG; also called B-type IgG; B-type antibody) VH: QVQLVQSGAEVKKPGASVKVSCKVSGYTFTKLSVHWVRQAPGKGLEWMGSFDPEDGETIYSQRFQGRVTMTEDTSTDTAYMELSSLRSEDTAVYYCATEGQWLVAYYGMDVWGQGTMVTVSS VL: EIVLTQSPSSLSASVGDRVTITCRASQGISSALAWYQQKPGKAPKLLIYDASSLESGVPSRFSGSGSGTDFTLTISSLQPEDFATYYCQQFNSYPLTFGGGTKVEIK"
